# According to the supplement of paper PMC7877785:
# ± gives the uncertainty stated by the source.
# Assay: self-splicing fitness, log relative to wild type (ln ratio); higher = more splicing; Tetrahymena group I intron in knt gene, E. coli kanamycin selection, DiMSum; sequences stand for … in CUCUCU…GGAGGGAAAAGUUAUCAGGCAUGCACCUGGUAGCUAGUCUUUAAACCAAUAGAUUGCAUCGGUUUAAAAGGCAAGACCGUCAAAUUGCGGGAAAGGGGUCAACAGCCGUUCAGUACCAAGUCUCAGGGGAAACUUUGAGAUGGCCUUGCAAAGGGUAUGGUAAUAAGCUGACGGACAUGGUCCUAACCACGCAGCCAAGUCCUAAGUCAACAGAUCUUCUGUUGAUAUGGAUGCAGUUCACAGACUAAAUGUCGGUCGGGGAAGAUGUAUUCUUCUCAUAAGAUAUAGUCGGACCUCUCCUUAAUGGGAGCUAGCGGAUGAAGUGAUGCAACACUGGAGCCGCUGGGAACUAAUUUGUAUGCGAAAGUAUAUUGAUUAGUUUUGGAGUACUCGUGGUCG
# How it was run: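 Six replicate transformations of E. coli BL21(DE3) with a pET-22b(+) library were grown overnight at 37°C or 30°C. The library randomised all eight P1ex-region intron nucleotides, the intron lying in the knt kanamycin-resistance gene, and plates were LB agar with or without 25 μg/mL kanamycin plus 100 μg/mL carbenicillin, 50 μM IPTG and 0.2% rhamnose. Pooled colonies were amplicon-sequenced on an Illumina HiSeq 2500, and fitness is the DiMSum error-weighted combination of wild-type-normalised replicate fold changes, kanamycin versus none.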
Sequence,self-splicing fitness (ln) (30 °C),self-splicing fitness (ln) (37 °C)
UUCGAGCAAUAUUACGGUAU,-3.95 ± 0.22,-2.22 ± 0.23
UCCAAGCAAUAUUACGUGGU,-2.96 ± 0.1,-1.45 ± 0.092
AUUUAGCAAUAUUACGGUGG,-3.55 ± 0.31,-3.1 ± 0.27
GGCCAGCAAUAUUACGAUAA,-3.64 ± 0.4,-1.09 ± 0.15
GUUUAGCAAUAUUACGUCUC,-0.593 ± 0.19,0.43 ± 0.24
GCUUAGCAAUAUUACGGUUA,-0.517 ± 0.11,-0.548 ± 0.11
UGCAAGCAAUAUUACGACGA,-0.804 ± 0.074,0.648 ± 0.087
GUCCAGCAAUAUUACGAUCC,-0.959 ± 0.087,-0.16 ± 0.11
UUAAAGCAAUAUUACGGACC,-2.27 ± 0.18,0.778 ± 0.16
GUAAAGCAAUAUUACGCGGA,-1.51 ± 0.086,-1.3 ± 0.11
AGUAAGCAAUAUUACGAUUU,-0.313 ± 0.1,-0.0587 ± 0.13
GCCGAGCAAUAUUACGGACA,-0.642 ± 0.083,0.233 ± 0.082
AACAAGCAAUAUUACGCUCC,-2.2 ± 0.12,-0.601 ± 0.13
UUCGAGCAAUAUUACGCCGG,-1.98 ± 0.39,–
AAGAAGCAAUAUUACGUACU,0.124 ± 0.082,0.141 ± 0.099
AUGAAGCAAUAUUACGACCA,0.00939 ± 0.06,0.489 ± 0.083
GGUUAGCAAUAUUACGGUGC,-1.07 ± 0.088,-0.186 ± 0.12
CGUUAGCAAUAUUACGGUAU,-3.23 ± 0.22,-2.2 ± 0.22
CUCGAGCAAUAUUACGCUAU,-2.92 ± 0.26,-2.8 ± 0.26
CAACAGCAAUAUUACGUUGA,-3.22 ± 0.12,-3.19 ± 0.15

Sequence,self-splicing fitness (ln) (30 °C),self-splicing fitness (ln) (37 °C)
UGUCAGCAAUAUUACGACCA,-0.0909 ± 0.084,0.138 ± 0.12
AGUCAGCAAUAUUACGUGAA,-1.5 ± 0.065,-1.09 ± 0.082
GCCGAGCAAUAUUACGGAGG,-3.45 ± 0.18,-2.1 ± 0.21
AUAGAGCAAUAUUACGCCUU,-1.66 ± 0.12,0.354 ± 0.16
CGGAAGCAAUAUUACGUGCU,-3.85 ± 0.24,-2.32 ± 0.23
UAUGAGCAAUAUUACGACUG,-1.23 ± 0.12,-0.328 ± 0.14
UUCGAGCAAUAUUACGGUCA,-1.71 ± 0.15,-1.26 ± 0.13
CCAUAGCAAUAUUACGGCAC,–,-1.84 ± 0.28
CAGGAGCAAUAUUACGGAAA,-2.58 ± 0.14,-2.59 ± 0.23
CCAAAGCAAUAUUACGGACA,-2.84 ± 0.2,-2.86 ± 0.25
UCUUAGCAAUAUUACGGUAU,-4.43 ± 0.39,-2.85 ± 0.29
CGCCAGCAAUAUUACGAUUG,-0.454 ± 0.06,0.047 ± 0.083
UGUAAGCAAUAUUACGAUGU,-3.26 ± 0.15,-1.93 ± 0.21
AUGGAGCAAUAUUACGUCAU,–,-1.33 ± 0.27
UAGCAGCAAUAUUACGGUGU,-3.53 ± 0.15,-1.84 ± 0.15
UGACAGCAAUAUUACGCUUU,-3.43 ± 0.2,-2.54 ± 0.26
UCGAAGCAAUAUUACGCGAU,-3.31 ± 0.32,–
GAGAAGCAAUAUUACGUAAU,-1.88 ± 0.1,-0.98 ± 0.11
ACAUAGCAAUAUUACGGUCU,-1.46 ± 0.071,-0.428 ± 0.089
